B1: Azoarcus group I ribozyme (parent)
chain: GUGCCUUGCGCCGGGAAACCACGCAAGGGAUGGUGUCAAAUUCGGCGAAACCUAAGCGCCCGCCCGGGCGUAUGGCAACGCCGAGCCAAGCUUCGGCGCCUGCGCCGAUGAAGGUGUAGAGACUAGACGGCACCCACCUAAGGCAAACGCUAUGGUGAAGGCAUAGUCCAGGGAGUGGCGAAAGUCACACAAACCGG

Variants of: B1
Experiment: reverse-splicing fitness (ratio to wild type); higher = more active; in vitro selection; Mg2+ level not given
How it was run: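 An in vitro group I ribozyme library with randomized positions was T7-transcribed and gel-purified. In triplicate, 10 pmol RNA in EPPS pH 7.5 was reacted with 50 pmoles of a 30-nt RNA substrate for 1 h at 37 °C across several added MgCl2 levels (1–48 mM), then stopped with EDTA. Products were reverse transcribed from a substrate-complementary primer, PCR-amplified and sequenced (HiSeq 4000). Fitness is a variant's read proportion after selection over that before, normalised to wild type.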

| Variant | reverse-splicing fitness |
| --- | --- |
| C82G A120U C150G U176G | 0.00297 |
| C82G A120U C150U | 0.1 |
| C82G A120U C150U C169A | 0.00461 |
| C82G A120U C150U C169A U176A | 0.00417 |
| C82G A120U C150U C169A U176C | 0.00267 |
| C82G A120U C150U C169A U176G | 0.00166 |
| C82G A120U C150U C169G | 0.00527 |
| C82G A120U C150U C169G U176A | 0.00481 |
| C82G A120U C150U C169G U176C | 0.00376 |
| C82G A120U C150U C169G U176G | 0.00205 |
| C82G A120U C150U C169U | 0.00575 |
| C82G A120U C150U C169U U176A | 0.00509 |
| C82G A120U C150U C169U U176C | 0.00336 |
| C82G A120U C150U C169U U176G | 0.00193 |
| C82G A120U C150U U176A | 0.0366 |
| C82G A120U C150U U176C | 0.058 |
| C82G A120U C150U U176G | 0.0119 |
| C82G A120U C169A | 0.00257 |
| C82G A120U C169A U176A | 0.00247 |
| C82G A120U C169A U176C | 0.00259 |
| C82G A120U C169A U176G | 0.000985 |
| C82G A120U C169G | 0.00666 |
| C82G A120U C169G U176A | 0.00367 |
| C82G A120U C169G U176C | 0.00322 |

| Variant | reverse-splicing fitness |
| --- | --- |
| C82G A120U C169G U176G | 0.00147 |
| C82G A120U C169U | 0.00719 |
| C82G A120U C169U U176A | 0.00406 |
| C82G A120U C169U U176C | 0.00518 |
| C82G A120U C169U U176G | 0.00154 |
| C82G A120U U176A | 0.0729 |
| C82G A120U U176C | 0.113 |
| C82G A120U U176G | 0.0201 |
| C82G A145C | 0.45 |
| C82G A145C C150A | 0.0227 |
| C82G A145C C150A C169A | 0.00782 |
| C82G A145C C150A C169A U176A | 0.0106 |
| C82G A145C C150A C169A U176C | 0.0049 |
| C82G A145C C150A C169A U176G | 0.00515 |
| C82G A145C C150A C169G | 0.00807 |
| C82G A145C C150A C169G U176A | 0.0223 |
| C82G A145C C150A C169G U176C | 0.0105 |
| C82G A145C C150A C169G U176G | 0.00624 |
| C82G A145C C150A C169U | 0.00875 |
| C82G A145C C150A C169U U176A | 0.0123 |
| C82G A145C C150A C169U U176C | 0.00742 |
| C82G A145C C150A C169U U176G | 0.00493 |
| C82G A145C C150A U176A | 0.0237 |
| C82G A145C C150A U176C | 0.0216 |

| Variant | reverse-splicing fitness |
| --- | --- |
| C82G A145C C150A U176G | 0.0117 |
| C82G A145C C150G | 0.0512 |
| C82G A145C C150G C169A | 0.00875 |
| C82G A145C C150G C169A U176A | 0.00807 |
| C82G A145C C150G C169A U176C | 0.00634 |
| C82G A145C C150G C169A U176G | 0.00487 |
| C82G A145C C150G C169G | 0.00714 |
| C82G A145C C150G C169G U176A | 0.00973 |
| C82G A145C C150G C169G U176C | 0.00656 |
| C82G A145C C150G C169G U176G | 0.0054 |
| C82G A145C C150G C169U | 0.01 |
| C82G A145C C150G C169U U176A | 0.0101 |
| C82G A145C C150G C169U U176C | 0.00852 |
| C82G A145C C150G C169U U176G | 0.00486 |
| C82G A145C C150G U176A | 0.0337 |
| C82G A145C C150G U176C | 0.0389 |
| C82G A145C C150G U176G | 0.0106 |
| C82G A145C C150U | 0.0965 |
| C82G A145C C150U C169A | 0.00797 |
| C82G A145C C150U C169A U176A | 0.0111 |
| C82G A145C C150U C169A U176C | 0.00579 |
| C82G A145C C150U C169A U176G | 0.00476 |
| C82G A145C C150U C169G | 0.00731 |
| C82G A145C C150U C169G U176A | 0.019 |

| Variant | reverse-splicing fitness |
| --- | --- |
| C82G A145C C150U C169G U176C | 0.00942 |
| C82G A145C C150U C169G U176G | 0.00533 |
| C82G A145C C150U C169U | 0.00975 |
| C82G A145C C150U C169U U176A | 0.0142 |
| C82G A145C C150U C169U U176C | 0.00905 |
| C82G A145C C150U C169U U176G | 0.00436 |
| C82G A145C C150U U176A | 0.0881 |
| C82G A145C C150U U176C | 0.0809 |
| C82G A145C C150U U176G | 0.0373 |
| C82G A145C C169A | 0.00859 |
| C82G A145C C169A U176A | 0.0121 |
| C82G A145C C169A U176C | 0.00541 |
| C82G A145C C169A U176G | 0.00481 |
| C82G A145C C169G | 0.0115 |
| C82G A145C C169G U176A | 0.0202 |
| C82G A145C C169G U176C | 0.011 |
| C82G A145C C169G U176G | 0.0041 |
| C82G A145C C169U | 0.016 |
| C82G A145C C169U U176A | 0.0128 |
| C82G A145C C169U U176C | 0.0115 |
| C82G A145C C169U U176G | 0.00465 |
| C82G A145C U176A | 0.378 |
| C82G A145C U176C | 0.35 |
| C82G A145C U176G | 0.153 |

| Variant | reverse-splicing fitness |
| --- | --- |
| C82G A145G | 0.458 |
| C82G A145G C150A | 0.0607 |
| C82G A145G C150A C169A | 0.0117 |
| C82G A145G C150A C169A U176A | 0.0204 |
| C82G A145G C150A C169A U176C | 0.0238 |
| C82G A145G C150A C169A U176G | 0.00731 |
| C82G A145G C150A C169G | 0.00861 |
| C82G A145G C150A C169G U176A | 0.017 |
| C82G A145G C150A C169G U176C | 0.0286 |
| C82G A145G C150A C169G U176G | 0.00515 |
| C82G A145G C150A C169U | 0.0106 |
| C82G A145G C150A C169U U176A | 0.0137 |
| C82G A145G C150A C169U U176C | 0.0141 |
| C82G A145G C150A C169U U176G | 0.00552 |
| C82G A145G C150A U176A | 0.0509 |
| C82G A145G C150A U176C | 0.0688 |
| C82G A145G C150A U176G | 0.0244 |
| C82G A145G C150G | 0.05 |
| C82G A145G C150G C169A | 0.00944 |
| C82G A145G C150G C169A U176A | 0.0146 |
| C82G A145G C150G C169A U176C | 0.0144 |
| C82G A145G C150G C169A U176G | 0.00858 |
| C82G A145G C150G C169G | 0.00848 |
| C82G A145G C150G C169G U176A | 0.0113 |

| Variant | reverse-splicing fitness |
| --- | --- |
| C82G A145G C150G C169G U176C | 0.0146 |
| C82G A145G C150G C169G U176G | 0.00613 |
| C82G A145G C150G C169U | 0.011 |
| C82G A145G C150G C169U U176A | 0.0126 |
| C82G A145G C150G C169U U176C | 0.0131 |
| C82G A145G C150G C169U U176G | 0.0072 |
| C82G A145G C150G U176A | 0.0343 |
| C82G A145G C150G U176C | 0.0452 |
| C82G A145G C150G U176G | 0.0127 |
| C82G A145G C150U | 0.401 |
| C82G A145G C150U C169A | 0.0118 |
| C82G A145G C150U C169A U176A | 0.0169 |
| C82G A145G C150U C169A U176C | 0.0162 |
| C82G A145G C150U C169A U176G | 0.00619 |
| C82G A145G C150U C169G | 0.012 |
| C82G A145G C150U C169G U176A | 0.0145 |
| C82G A145G C150U C169G U176C | 0.0184 |
| C82G A145G C150U C169G U176G | 0.00499 |
| C82G A145G C150U C169U | 0.0159 |
| C82G A145G C150U C169U U176A | 0.0145 |
| C82G A145G C150U C169U U176C | 0.015 |
| C82G A145G C150U C169U U176G | 0.0045 |
| C82G A145G C150U U176A | 0.264 |
| C82G A145G C150U U176C | 0.291 |

| Variant | reverse-splicing fitness |
| --- | --- |
| C82G A145G C150U U176G | 0.106 |
| C82G A145G C169A | 0.00951 |
| C82G A145G C169A U176A | 0.0187 |
| C82G A145G C169A U176C | 0.0249 |
| C82G A145G C169A U176G | 0.00413 |
| C82G A145G C169G | 0.0112 |
| C82G A145G C169G U176A | 0.0176 |
| C82G A145G C169G U176C | 0.0279 |
| C82G A145G C169G U176G | 0.00454 |
| C82G A145G C169U | 0.0164 |
| C82G A145G C169U U176A | 0.0138 |
| C82G A145G C169U U176C | 0.0155 |
| C82G A145G C169U U176G | 0.00412 |
| C82G A145G U176A | 0.341 |
| C82G A145G U176C | 0.374 |
| C82G A145G U176G | 0.133 |
| C82G A145U | 0.509 |
| C82G A145U C150A | 0.0405 |
| C82G A145U C150A C169A | 0.00972 |
| C82G A145U C150A C169A U176A | 0.0121 |
| C82G A145U C150A C169A U176C | 0.0106 |
| C82G A145U C150A C169A U176G | 0.00561 |
| C82G A145U C150A C169G | 0.00669 |
